From patent publication US11312781B2, “Antigen binding molecules that bind LIGHT” (Capella Bioscience Ltd., priority 2018, dated 2022)

Molecular target: T1, LIGHT protein (Homo sapiens, UniProt O43557, K214E)
T1 construct: amino acids 74-240 LIGHT (R&D Systems, 664-LI-025); purchased R&D Systems 664-LI-025
Assay: Hydrogen-deuterium exchange (HDX) mass spectrometry epitope mapping
Format: binding
Design: Difference uptake (3B04-control) / Uptake 3B04: unit not given here
Details: for Uptake 3B04: average deuterium uptake n = 3
Experimental: The LIGHT protein (R&D Systems 664-LI-025) was solubilised in PBS buffer at a final concentration of 8 μM, whereas the antibodies were maintained at 20 μM in PBS. For complex formation the LIGHT protein was incubated with each antibody separately in 1:5 ratio on ice and HDX measurements were performed 30 min after incubation. All data were recorded on a waters Synapt G2Si equipped with a HDX platform. […] […] Subsequently each sample was quenched with 50 μL of 2M guanidinium chloride in at pH 2. The samples were passed through a pepsin column for 5 min to digest the protein and peptides were separated using a reverse phase chromatography. Data were analysed with DynamX software. Peptides were selected with a maximum length of 15 amino acids and a 5 ppm mass accuracy error. […] The analysis was repeated 3 times for each mAb.
HDX was used as a starting point to identify the epitope of antibody 3B04 binding to the LIGHT protein. A sequence coverage of 69.2% of the LIGHT protein was achieved and the regions that were not observed were due to the presence of a […] and glycosylation. The glycans were not removed from LIGHT in order to preserve the structure of the protein in a native state. […] (Difference in uptake between 3B04 and control mAb, Table 16, values in bold). […] The results from HDX spectrometry were used as a guide to identify a region of interest that was subsequently analysed using alanine scanning.

[1] = LIGHT peptide 194-202 SRVWWDSSF, Exposure (sec) 0.33
[2] = LIGHT peptide 194-202 SRVWWDSSF, Exposure (sec) 1.00
[3] = LIGHT peptide 194-202 SRVWWDSSF, Exposure (sec) 5.00
[4] = LIGHT peptide 194-202 SRVWWDSSF, Exposure (sec) 30.00
[5] = LIGHT peptide 195-202 RVWWDSSF, Exposure (sec) 0.33
[6] = LIGHT peptide 195-202 RVWWDSSF, Exposure (sec) 1.00
[7] = LIGHT peptide 195-202 RVWWDSSF, Exposure (sec) 5.00
[8] = LIGHT peptide 195-202 RVWWDSSF, Exposure (sec) 30.00
[9] = LIGHT peptide 197-202 WWDSSF, Exposure (sec) 0.33
[10] = LIGHT peptide 197-202 WWDSSF, Exposure (sec) 1.00
[11] = LIGHT peptide 197-202 WWDSSF, Exposure (sec) 5.00
[12] = LIGHT peptide 197-202 WWDSSF, Exposure (sec) 30.00
[13] = LIGHT peptide 203-209 LGGVVHL, Exposure (sec) 0.33
[14] = LIGHT peptide 203-209 LGGVVHL, Exposure (sec) 1.00
[15] = LIGHT peptide 203-209 LGGVVHL, Exposure (sec) 5.00
[16] = LIGHT peptide 203-209 LGGVVHL, Exposure (sec) 30.00
[17] = LIGHT peptide 203-214 LGGVVHLEAGEE, Exposure (sec) 0.33
[18] = LIGHT peptide 203-214 LGGVVHLEAGEE, Exposure (sec) 1.00
[19] = LIGHT peptide 203-214 LGGVVHLEAGEE, Exposure (sec) 5.00
[20] = LIGHT peptide 203-214 LGGVVHLEAGEE, Exposure (sec) 30.00

T1 sequence (O43557 74-240 K214E): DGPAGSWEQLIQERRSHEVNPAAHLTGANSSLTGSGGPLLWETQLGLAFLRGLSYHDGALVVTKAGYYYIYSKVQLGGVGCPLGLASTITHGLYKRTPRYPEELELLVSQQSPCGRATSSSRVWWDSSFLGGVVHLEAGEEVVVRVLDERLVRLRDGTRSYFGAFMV

B1: 3B04: parental mouse anti-membrane LIGHT antibody, VL SEQ ID NO 1, VH SEQ ID NO 5; tested as chimeric human IgG4 mAb (antibody, listed as Homo sapiens, V domains shown)
VH: QVQLQQPGAELVRPGASVTLSCKASGYTFTDYEMHWVKQTPVHGLEWIGEIDPETGDTAYSQKFKGKATLTADKSSSTAYMEFRSLTSEDSAVYYCSRETDYFFDYWGQGTTLTVSS
VL: DIQMTQTPASLSASVGETVTITCGASENIYGALNWYQRKQGKSPQLLIYGATNLADGMSSRFSGSGSGRQYSLKISSLHPDDFATYYCQNVLTTPWTFGGGTKLEIKR
In the case of B1, the “Difference uptake (3B04-control)” value [1] is reported as −0.296, the “Uptake 3B04” value [1] is reported as 0.744 and the “Difference uptake (3B04-control)” value [2] is reported as −0.443. The “Uptake 3B04” value [2] was 0.885, the “Difference uptake (3B04-control)” value [3] was −0.405 and the “Uptake 3B04” value [3] was 1.159. The “Difference uptake (3B04-control)” value [4] was −0.656, the “Uptake 3B04” value [4] was 1.392 and the “Difference uptake (3B04-control)” value [5] was −0.254. The “Uptake 3B04” value [5] was 0.393, the “Difference uptake (3B04-control)” value [6] was −0.399 and the “Uptake 3B04” value [6] was 0.480. The “Difference uptake (3B04-control)” value [7] was −0.474, the “Uptake 3B04” value [7] was 0.631 and the “Difference uptake (3B04-control)” value [8] was −0.756. For the same molecule, the “Uptake 3B04” value [8] was 0.805, the “Difference uptake (3B04-control)” value [9] was −0.187 and the “Uptake 3B04” value [9] was 0.240. The “Difference uptake (3B04-control)” value [10] was −0.269, the “Uptake 3B04” value [10] was 0.336 and the “Difference uptake (3B04-control)” value [11] was −0.217. For the same molecule, the “Uptake 3B04” value [11] was 0.501, the “Difference uptake (3B04-control)” value [12] was −0.252 and the “Uptake 3B04” value [12] was 0.603. For the same molecule, the “Difference uptake (3B04-control)” value [13] was −0.029, the “Uptake 3B04” value [13] was 0.145 and the “Difference uptake (3B04-control)” value [14] was −0.027. The “Uptake 3B04” value [14] was 0.147, the “Difference uptake (3B04-control)” value [15] was −0.014 and the “Uptake 3B04” value [15] was 0.237. For the same molecule, the “Difference uptake (3B04-control)” value [16] was −0.052, the “Uptake 3B04” value [16] was 0.384 and the “Difference uptake (3B04-control)” value [17] was −0.050. The “Uptake 3B04” value [17] was 0.202, the “Difference uptake (3B04-control)” value [18] was −0.033 and the “Uptake 3B04” value [18] was 0.266. For the same molecule, the “Difference uptake (3B04-control)” value [19] was −0.087, the “Uptake 3B04” value [19] was 0.399 and the “Difference uptake (3B04-control)” value [20] was −0.081. For the same molecule, the “Uptake 3B04” value [20] was 0.807 and the “Epitope defined by HDX” value (soluble LIGHT) was “residues 195-197 of soluble LIGHT”.
